The text below walks through data of paper PMC5789848 (2018).

Assay [1] has as its target T1, GST-Tax_(CACA) (HTLV-1 Tax with C23 and C29 changed to alanine, N-terminal GST fusion) (HTLV-1, UniProt P03409 1-353, C23A | C29A). The experiment in a line: BLI. On the technique in general: BLI is a label-free optical method that tracks binding on a fibre tip over time.
Assay [2] addresses T1, GST-Tax_(CACA) (HTLV-1 Tax with C23 and …). The experiment in a line: BLI. This is another data set of the same source.

B1: UPF1-HD_(DE636AA), histidine-tagged (domain or fragment)
chain: RYEDAYQYQNIFGPLVKLEADYDKKLKESQTQDNITVRWDLGLNKKRIAYFTLPKTDSDMRLMQGDEICLRYKGDLAPLWKGIGHVIKVPDNYGDEIAIELRSSVGAPVEVTHNFQVDFVWKSTSFDRMQSALKTFAVDETSVSGYIYHKLLGHEVEDVIIKCQLPKRFTAQGLPDLNHSQVYAVKTVLQRPLSLIQGPPGTGKTVTSATIVYHLARQGNGPVLVCAPSNIAVDQLTEKIHQTGLKVVRLCAKSREAIDSPVSFLALHNQIRNMDSMPELQKLQQLKDETGELSSADEKRYRALKRTAERELLMNADVICCTCVGAGDPRLAKMQFRSILIAASTQATEPECMVPVVLGAKQLILVGDHCQLGPVVMCKKAAKAGLSQSLFERLVVLGIRPIRLQVQYRMHPALSAFPSNIFYEGSLQNGVTAADRVKKGFDFQWPQPDKPMFFYVTQGQEEIASSGTSYLNRTEAANVEKITTKLLKAGAKPDQIGIITPYEGQRSYLVQYMQFSGSLHTKLYQEVEIASVDAFQGREKDFIILSCVRANEHQGIGFLNDPRRLNVALTRARYGVIIVGNPKALSKQPLWNHLLNYYKEQKVLVEGPLNNLRESLMQFS
By Kd is commonly meant the constant that tells how readily two partners part at equilibrium. A low value points to a tighter complex. What is called koff is the first-order rate constant of dissociation. Higher therefore signals a short-lived complex. The molecule B1 showed a Kd in assay [1] of 31.4 nM. This molecule yielded a koff in assay [2] of 0.000283 s⁻¹.

B2: UPF1-HD_(R843S), histidine-tagged (domain or fragment)
chain: RYEDAYQYQNIFGPLVKLEADYDKKLKESQTQDNITVRWDLGLNKKRIAYFTLPKTDSDMRLMQGDEICLRYKGDLAPLWKGIGHVIKVPDNYGDEIAIELRSSVGAPVEVTHNFQVDFVWKSTSFDRMQSALKTFAVDETSVSGYIYHKLLGHEVEDVIIKCQLPKRFTAQGLPDLNHSQVYAVKTVLQRPLSLIQGPPGTGKTVTSATIVYHLARQGNGPVLVCAPSNIAVDQLTEKIHQTGLKVVRLCAKSREAIDSPVSFLALHNQIRNMDSMPELQKLQQLKDETGELSSADEKRYRALKRTAERELLMNADVICCTCVGAGDPRLAKMQFRSILIDESTQATEPECMVPVVLGAKQLILVGDHCQLGPVVMCKKAAKAGLSQSLFERLVVLGIRPIRLQVQYRMHPALSAFPSNIFYEGSLQNGVTAADRVKKGFDFQWPQPDKPMFFYVTQGQEEIASSGTSYLNRTEAANVEKITTKLLKAGAKPDQIGIITPYEGQRSYLVQYMQFSGSLHTKLYQEVEIASVDAFQGREKDFIILSCVSANEHQGIGFLNDPRRLNVALTRARYGVIIVGNPKALSKQPLWNHLLNYYKEQKVLVEGPLNNLRESLMQFS
In assay [1], B2 had a Kd of 66.6 nM. This molecule also registered a koff in assay [2] of 0.000877 s⁻¹.

B3: UPF1-HD_(R843C), histidine-tagged (domain or fragment)
chain: RYEDAYQYQNIFGPLVKLEADYDKKLKESQTQDNITVRWDLGLNKKRIAYFTLPKTDSDMRLMQGDEICLRYKGDLAPLWKGIGHVIKVPDNYGDEIAIELRSSVGAPVEVTHNFQVDFVWKSTSFDRMQSALKTFAVDETSVSGYIYHKLLGHEVEDVIIKCQLPKRFTAQGLPDLNHSQVYAVKTVLQRPLSLIQGPPGTGKTVTSATIVYHLARQGNGPVLVCAPSNIAVDQLTEKIHQTGLKVVRLCAKSREAIDSPVSFLALHNQIRNMDSMPELQKLQQLKDETGELSSADEKRYRALKRTAERELLMNADVICCTCVGAGDPRLAKMQFRSILIDESTQATEPECMVPVVLGAKQLILVGDHCQLGPVVMCKKAAKAGLSQSLFERLVVLGIRPIRLQVQYRMHPALSAFPSNIFYEGSLQNGVTAADRVKKGFDFQWPQPDKPMFFYVTQGQEEIASSGTSYLNRTEAANVEKITTKLLKAGAKPDQIGIITPYEGQRSYLVQYMQFSGSLHTKLYQEVEIASVDAFQGREKDFIILSCVCANEHQGIGFLNDPRRLNVALTRARYGVIIVGNPKALSKQPLWNHLLNYYKEQKVLVEGPLNNLRESLMQFS
In turn, B3 showed a Kd in assay [1] of 53.8 nM. The koff in assay [2] is 0.000437 s⁻¹.

B4: UPF1 helicase core domain (UPF1-HD; aa 295-914), C-terminal hexahistidine (domain or fragment)
chain: RYEDAYQYQNIFGPLVKLEADYDKKLKESQTQDNITVRWDLGLNKKRIAYFTLPKTDSDMRLMQGDEICLRYKGDLAPLWKGIGHVIKVPDNYGDEIAIELRSSVGAPVEVTHNFQVDFVWKSTSFDRMQSALKTFAVDETSVSGYIYHKLLGHEVEDVIIKCQLPKRFTAQGLPDLNHSQVYAVKTVLQRPLSLIQGPPGTGKTVTSATIVYHLARQGNGPVLVCAPSNIAVDQLTEKIHQTGLKVVRLCAKSREAIDSPVSFLALHNQIRNMDSMPELQKLQQLKDETGELSSADEKRYRALKRTAERELLMNADVICCTCVGAGDPRLAKMQFRSILIDESTQATEPECMVPVVLGAKQLILVGDHCQLGPVVMCKKAAKAGLSQSLFERLVVLGIRPIRLQVQYRMHPALSAFPSNIFYEGSLQNGVTAADRVKKGFDFQWPQPDKPMFFYVTQGQEEIASSGTSYLNRTEAANVEKITTKLLKAGAKPDQIGIITPYEGQRSYLVQYMQFSGSLHTKLYQEVEIASVDAFQGREKDFIILSCVRANEHQGIGFLNDPRRLNVALTRARYGVIIVGNPKALSKQPLWNHLLNYYKEQKVLVEGPLNNLRESLMQFS
B4 gave a Kd in assay [1] of 16.6 nM. Moreover, the koff in assay [2] was found to be 0.00038 s⁻¹.
